From publication PMC12319226 (Frontiers in Bioinformatics, 2025)
Residue numbers refer to the chain shown, from its start.

T1: fHbp mutant 0014 (Neisseria meningitidis, fHbp v1.1 mutant, point mutant)
T1 chain: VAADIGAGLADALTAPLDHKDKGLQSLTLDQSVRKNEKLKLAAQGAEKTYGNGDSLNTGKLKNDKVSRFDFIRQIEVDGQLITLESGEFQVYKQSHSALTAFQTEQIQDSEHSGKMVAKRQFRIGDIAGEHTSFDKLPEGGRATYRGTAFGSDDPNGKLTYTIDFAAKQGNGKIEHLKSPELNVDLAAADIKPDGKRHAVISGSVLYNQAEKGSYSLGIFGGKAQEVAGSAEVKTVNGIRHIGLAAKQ

T2: fHbp mutant 0012 (Neisseria meningitidis, fHbp v1.1 mutant, point mutant)
T2 chain: T1 chain with I72V, Q74K, P155A, N156G

T3: fHbp mutant 0024 (Neisseria meningitidis, fHbp v3.28 …, point mutant)
T3 chain: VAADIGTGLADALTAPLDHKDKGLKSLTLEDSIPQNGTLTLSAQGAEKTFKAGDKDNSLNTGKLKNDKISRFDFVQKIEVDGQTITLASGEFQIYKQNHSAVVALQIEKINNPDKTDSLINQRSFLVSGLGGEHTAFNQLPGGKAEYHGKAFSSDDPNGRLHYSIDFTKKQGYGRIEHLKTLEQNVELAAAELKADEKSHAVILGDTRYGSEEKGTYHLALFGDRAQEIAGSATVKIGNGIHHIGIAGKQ

T4: fHbp mutant 0022 (Neisseria meningitidis, fHbp v3.28 …, point mutant)
T4 chain: T3 chain with G210N, E212A, T216S, N239E, G240K, I241V, H243E

T5: fHbp mutant 0018 (Neisseria meningitidis, fHbp v1.1 mutant, point mutant)
T5 chain: T1 chain with K38T, K40T, A42S, I72V, Q74K, Q106K

T6: fHbp m000019 (Neisseria meningitidis, fHbp v1.1 …, point mutant)
T6 chain: T1 chain with K38T, K40T, A42S, I72V, Q74K, Q106K, M116L, A118N, P155A, N156G

T7: fHbp mutant 0015 (Neisseria meningitidis, fHbp v1.1 mutant, point mutant)
T7 chain: T1 chain with I72V, Q74K, Q106K, M116L, A118N

T8: fHbp mutant 0016 (Neisseria meningitidis, fHbp v1.1 mutant, point mutant)
T8 chain: T1 chain with K38T, K40T, A42S, E76R, V77S, Q106K, M116L, A118N

T9: factor H binding protein variant 3.28 (Neisseria meningitidis, fHbp variant …)
T9 construct: also called fHbp v3.28; v3.28 Control (0002)
T9 chain: T3 chain with N239E, G240K, I241V, H243E

B1: mAb 1E6 (human) (antibody, V domains shown)
VH: EVQLVQSGAEVKKPGSSVKVSCKASGGTVIDYPITWVRQAPGQGLEWVGGFVPLFRTSNYGQKFQGRVTITADKSTSTASMELNSLTSEDTAIYYCARGDTAMGPFDYWGQGTLVTVSS
VL: SYVLTQPPSLSVAPGKTATLTCGGNNIAGKTVHWYQQRPGQAPVLVISYDSDRPSGIPERFSGSNSANTATLTISRVEAGDEADYYCQVWDRNSDHWVFGGGTKLTVL
notes: source: Expi293, purified (MabSelect SuRe, SEC); copies: 2 + 2
B2: mAb 4B3 (human) (antibody, V domains shown)
VH: QVQLVQSGGGLVKPGGSLRLSCAASGFPFSSYYMSWIRQAPGKGLEWVSDINNSGNVKEYADFVKGRLTISRDNVKNSMYLHMNSLRVEDTAVYYCARNRGRFDVWGQGTLVTVSA
VL: EIVMTQSPGTLSLSPGETATLSCRASQMISSPFLAWYQQRRGQAPRLLIYGASTRATDTPDRFRGSGSGTDFILTISRLEPEDFAVYYCQYYDDSPFTFGQGTKLEIK
notes: also called 4B3-2; source: Expi293, purified (MabSelect SuRe, SEC); copies: 2 + 2

What was measured:
Experiment in all cases: BLI
Conditions in all cases: both partners purified
fHbp mutant 0014 = biological target: T1, fHbp mutant 0014
fHbp mutant 0012 = biological target: T2, fHbp mutant 0012
fHbp mutant 0024 = biological target: T3, fHbp mutant 0024
fHbp mutant 0022 = biological target: T4, fHbp mutant 0022
fHbp mutant 0018 = biological target: T5, fHbp mutant 0018
fHbp m000019 = biological target: T6, fHbp m000019
fHbp mutant 0015 = biological target: T7, fHbp mutant 0015
fHbp mutant 0016 = biological target: T8, fHbp mutant 0016
[1] = biological target: T9, factor H binding protein variant 3.28

| Binder | Kd (fHbp mutant 0014) [nM] | koff (fHbp mutant 0014) [s⁻¹] | kon (fHbp mutant 0014) [M⁻¹ s⁻¹] | Kd (fHbp mutant 0012) [nM] | koff (fHbp mutant 0012) [s⁻¹] | kon (fHbp mutant 0012) [M⁻¹ s⁻¹] | Kd (fHbp mutant 0024) [nM] | koff (fHbp mutant 0024) [s⁻¹] | kon (fHbp mutant 0024) [M⁻¹ s⁻¹] | Kd (fHbp mutant 0022) [nM] | koff (fHbp mutant 0022) [s⁻¹] | kon (fHbp mutant 0022) [M⁻¹ s⁻¹] | Kd (fHbp mutant 0018) [nM] | koff (fHbp mutant 0018) [s⁻¹] | kon (fHbp mutant 0018) [M⁻¹ s⁻¹] | Kd (fHbp m000019) [nM] | koff (fHbp m000019) [s⁻¹] | kon (fHbp m000019) [M⁻¹ s⁻¹] | Kd (fHbp mutant 0015) [nM] | koff (fHbp mutant 0015) [s⁻¹] | also measured |
| --- | --- | --- | --- | --- | --- | --- | --- | --- | --- | --- | --- | --- | --- | --- | --- | --- | --- | --- | --- | --- | --- |
| B1 | 2.11 | 0.00204 | 964100 ± 5740 | 3.52 | 0.00661 | 1.88e+06 ± 58600 | 0.369 | 0.000271 | 734700 ± 2210 | 0.601 | 0.0003 | 498300 ± 1660 | 1.04 | 0.000558 | 538300 ± 3080 | 2.19 | 0.00153 | 698800 ± 3080 | 1.42 | 0.000862 | kon (fHbp mutant 0015): 609000 ± 6530 M⁻¹ s⁻¹; Kd (fHbp mutant 0016): 0.69 nM; koff (fHbp mutant 0016): 0.000223 s⁻¹; kon (fHbp mutant 0016): 323000 ± 3620 M⁻¹ s⁻¹; Kd [1]: 1.76 nM; koff [1]: 0.000238 s⁻¹; kon [1]: 135000 ± 961 M⁻¹ s⁻¹ |
| B2 | 1.57 | 0.00116 | 736500 ± 3130 | 1.39 | 0.00126 | 906000 ± 2710 | 1.48 | 0.000969 | 655000 ± 3130 | 1.77 | 0.000836 | 473200 ± 1420 | 2.36 | 0.00101 | 426800 ± 2190 | 5.53 | 0.00124 | 224400 ± 1040 | 3.57 | 0.00129 | kon (fHbp mutant 0015): 360000 ± 5970 M⁻¹ s⁻¹; Kd (fHbp mutant 0016): 4.74 nM; koff (fHbp mutant 0016): 0.00131 s⁻¹; kon (fHbp mutant 0016): 276800 ± 1380 M⁻¹ s⁻¹; Kd [1]: 5.15 nM; koff [1]: 0.000542 s⁻¹; kon [1]: 105000 ± 1620 M⁻¹ s⁻¹ |
